Biological target: tight-coupled 70S ribosome from Thermus thermophilus (Thermus thermophilus)
Test: co-sedimentation

For “elongation factor G (EF-G), Thermus thermophilus HB8 (from UniProt Q5SHN5 1-691) (enzyme)”, the occupancy of EF-G in the complexes was 60 to 70%.
